The subject of this data set is MS2 coat protein. Kind of data set: apparent KD of MS2 coat protein; designed switch direction (-1 OFF switch, 1 ON switch): -1; higher = weaker reporter binding. In outline:
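Transcription of designed RNA switches on Illumina chips was done by stalled E. coli RNA polymerase. SNAP-549-labelled MS2 coat protein was then titrated in doubling steps from 0.7 or 1.5 nM to 3 µM, with steps of 0.8–1.5 h at the lowest and 10–20 min at the highest concentration. The per-design median over clusters of curve-fitted normalised fluorescence is reported as apparent KD.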

The mark [1] stands for this setting: input ligand: microRNA oligo, concentration not stated.
Setting [2] is: Eterna round: R95, input ligand: FMN 200 uM.
Setting [3] is: Eterna round: R95, input ligand: microRNA oligo, concentration not stated.
Setting [4] is: Eterna round: R95, input ligand: none.

For “AGCUAGUCAGGAUAUUCUAAUAAUUACAUGAGGAUCACCCAUGUGAAGGGACAAGGGUGUGAAGAAGGGACUAGCG [Omei Ex5 A3] (Eterna round: R97, puzzle: Exclusion 5)”, the “apparent KD of MS2 coat protein” value was determined as 358 nM (input ligand: FMN 200 uM) and 529 nM (input ligand: none).
On to “AGCUAGUGCCGAGGAUAUACAUGAGGAUCACCCAUGUAGGCCAGUCGGUUUCUGACUGGCGAGAUGUAGAAGGCGGCGUUGGCA [JL ENG2 1.51] (Eterna round: R96, puzzle: Exclusion NG 2)”, for which the “apparent KD of MS2 coat protein” value reads like this: (input ligand: FMN 200 uM) 49 nM; under setting [1], 12.6 nM; (input ligand: none) 15.6 nM.
Turning to “AGCUGAGCAGGAUAUACAUGAGGAUCACCCAUGUAUUCUCGAAGGCGCCGCAUAGCAUGUAGAAGGGUUUAGAU [Eternabot (L1) Solution 20] (Eterna round: R97, puzzle: Exclusion 3)”, the “apparent KD of MS2 coat protein” value by setting is: (input ligand: FMN 200 uM) 17 nM; (input ligand: none) 23.2 nM.
For “AGCUGUGGCCGAGGAUAUCCACAUGAGGAUCACCCAUGUCGAUACCAGCGUAAGCUGGAUAUAAGGGAGAAGGCGGUCUCAGCA [Eli eng2 - 053] (Eterna round: R96, puzzle: Exclusion NG 2)”, the “apparent KD of MS2 coat protein” value by setting is: (input ligand: FMN 200 uM) 6.2 nM; under setting [1], 6.51 nM; (input ligand: none) 10.5 nM.
Regarding “AGCUGUGGCCGAGGAUAUCUAAAUUCUCAAAACGAAAUAUAAUCGAACAUGAGGAUCACCCAUGUAGAGAAGGCGGUCUCAGCA [Eli eng2 - 032] (Eterna round: R96, puzzle: Exclusion NG 2)”, under setting [1], the “apparent KD of MS2 coat protein” value was 34.6 nM.
In the case of “AGCUGUGGCCGAGGAUAUCUAAAUUCUUAAAACGAAAUAUAAUCGAACAUGAGGAUCACCCAUGUAGAGAAGGCGGUCUCAGCA [Eli eng2 - 059] (Eterna round: R96, puzzle: Exclusion NG 2)”, the “apparent KD of MS2 coat protein” value under setting [1] was 13.4 nM.
As to “AGCUGUGGCCGAGGAUAUCUACCUUCAAUAACCGAAAUAUAAUCGGACAUGAGGAUCACCCAUGUAGAGAAGGCGGUCUCAGCA [Eli eng2 - 086] (Eterna round: R96, puzzle: Exclusion NG 2)”, the “apparent KD of MS2 coat protein” value under setting [1] turned out to be 10.9 nM.
Still for that read-out and setting: the same measure for “AGCUGUGGCCGAGGAUAUCUGUUUCAUAAAACCGAAAUAUAAUCGGACAUGAGGAUCACCCAUGUAGAGAAGGCGGUCUCAGCA [Eli eng2 - 097] (Eterna round: R96, puzzle: Exclusion NG 2)”: 12 nM.
“AGGAAUGAAGGAUAUACAUGAGGAUCACCCAUGUAAAAGGAAAGAGGUGAUGGAGAUAGUAGAAGGUCAAGAAG [JR_Exclusion3_Sub004] (puzzle: Exclusion 3)”: the “apparent KD of MS2 coat protein” value by setting is: under setting [2], 94.2 nM; under setting [3], 135 nM; under setting [4], 204 nM.
Taken in the same sequence, the figures for “AGGAGCAGAGGGAGAUCCAACAUGAGGAUCACCCAUGUCUCAUAAGCUUUUUGCUCAUCUUAUUGUACCUUGGUGCU [Mat - Sensor v3 - turn-off var 1 - JL Mod - D26] (puzzle: Sensor v3, turn-off variant 1)” were 35.7 nM, 14.3 nM and 37.9 nM.
For “AGGGAUAAAGGAUAUACAUGAGGAUCACCCAUGUUGAGGAAAGUGAGAUGAGGAGGAAGUAGAAGGUUAGGCGA [JR_Exclu3_Sub085] (puzzle: Exclusion 3)”, in that order: 37.2 nM, 37.7 nM and 47.4 nM.
For “AGGGCACGAGGAUAUGUGAAACUGGACUUGAGGAUCACCCAAGUCGUCUUCGUGUCCAAAGCAGAAGGCGUGGCCA [Zaesce] (Eterna round: R97, puzzle: Exclusion 5)”, the “apparent KD of MS2 coat protein” value is 13.8 nM (input ligand: FMN 200 uM) and 10.4 nM (input ligand: none).
For the sequence “AGGUGACAUGAGGAUCACCCAUGUAAGGAUAUACGGUUAGUGGAGAGUUGGAGGAGAGGUAGAAGGUACGGAGC [JR_Exclu1_Sub060] (puzzle: Exclusion 1)”, the “apparent KD of MS2 coat protein” value under setting [3] was found to be 174 nM.
For “AGGUGUUUCGUAGGAUAUGAGGAUCACCCAUAGAAGGAUAUCGAAAGAGAAGGUCUGAGGAUUACCCAGAAGGACGGGACGUCA [pwkr exNG2 2xF5 2xFMN.10] (Eterna round: R96, puzzle: Exclusion NG 2)”, the “apparent KD of MS2 coat protein” value (input ligand: FMN 200 uM) turned out to be 570 nM, the “apparent KD of MS2 coat protein” value under setting [1] is 103 nM and the “apparent KD of MS2 coat protein” value (input ligand: none) is 145 nM.
Turning to “AGUAACAGAGGAUAUACUAUUUUAUGUAUUUAUUAUUUUAAACAUGAGGAUCACCCAUGUAGAAGGCUGAAUGA [JMF 97] (puzzle: Exclusion 2)”, the “apparent KD of MS2 coat protein” value under setting [3] was found to be 21.1 nM.
Turning to “AGUAACAGAGGAUAUACUAUUUUAUGUGUUUAUUAUUUUGAACAUGAGGAUCACCCAUGUAGAAGGCUGAAUAA [JMF 91] (puzzle: Exclusion 2)”, under setting [3], the “apparent KD of MS2 coat protein” value was found to be 27.2 nM.
In the case of “AGUAACCGUCACGAAAGUGAUGGUUACACAAGCAAAUGUACAUGAGGAUCACCCAUGUCCUCAUUUGCUCGUCUUGU [Sensor 3 - 48] (puzzle: Sensor v3, turn-off variant 2)”, the “apparent KD of MS2 coat protein” value was 101 nM under setting [2], 398 nM under setting [3] and 121 nM under setting [4].
Regarding “AGUAACCGUCACGAAAGUGAUGGUUACACAAGCAAAUGUACAUGAGGAUCACCCAUGUCCUCAUUUGUUCGUCUUAU [Sensor 3 - 47] (Eterna round: R96, puzzle: Sensor v3, turn-off variant 2)”, the “apparent KD of MS2 coat protein” value reads like this: (input ligand: FMN 200 uM) 101 nM; under setting [1], 305 nM; (input ligand: none) 104 nM.
As for “AGUAACCGUCACGAAAGUGAUGGUUACACAAGCAAAUGUACAUGAGGAUCACCCAUGUCCUCAUUUGUUCGUCUUAU [Sensor 3 - 47] (puzzle: Sensor v3, turn-off variant 2)”, the “apparent KD of MS2 coat protein” value under setting [2] was 83.5 nM, the “apparent KD of MS2 coat protein” value under setting [3] amounted to 390 nM and the “apparent KD of MS2 coat protein” value under setting [4] came out at 87.5 nM.
Taken in the same sequence, the figures for “AGUAACCGUCACGAAAGUGAUGGUUACACAAGCAAAUGUACAUGAGGAUCACCCAUGUCCUCGUUUGCUCGUCUUAU [Sensor 3 - 49] (puzzle: Sensor v3, turn-off variant 2)” were 26.9 nM, 96.7 nM and 31.2 nM.
On to “AGUAAGCUAGGAUAUGCUUAGGGAAAGCCUUCCUUCCACAAACUUGAGGAUCACCCAAGUAGAAGGAGCUAAAU [jl-ex2.4.46 ViennaUCT mod] (Eterna round: R97, puzzle: Exclusion 2)”, for which the “apparent KD of MS2 coat protein” value came out at 15.4 nM (input ligand: FMN 200 uM) and 13.5 nM (input ligand: none).
As to “AGUAAUUCAAGAGGAUAUCACAUGAGGAUCACCCAUGUAUAGCGCGCUACGCUAGUCCUCGUAUUUGAGAAGGUUUGAUAAAAG [Mat - Exclusion NG 2 - Mod of JL - D76] (Eterna round: R96, puzzle: Exclusion NG 2)”, the “apparent KD of MS2 coat protein” value worked out at 18.7 nM (input ligand: FMN 200 uM), 13.4 nM under setting [1] and 17.5 nM (input ligand: none).
Taken in the same sequence, the figures for “AGUAAUUCAAGAGGAUAUCACAUGAGGAUCACCCAUGUAUAGCGCGCUACGCUAGUCCUCGUAUUUGAGAAGGUUUGAUAAAUG [JL ViennaUCT Quve mod 1] (Eterna round: R96, puzzle: Exclusion NG 2)” were 14.4 nM, 12.5 nM and 17.1 nM.

For the origin of these results see the supplement of paper PMC9170038.
